According to article PMC5703999, “The E. coli dicarboxylic acid transporters DauA act as a signal transducer by interacting with the DctA uptake system” (Scientific Reports, 2017):

T1: DauA fused to the T18 or T25 domain of adenylate cyclase (E. coli, UniProt P0AFR2 1-559)
T1 construct: C4-dicarboxylic acid transporter DauA (previously YchM), E. coli; Stood with T18 and with T25 in reciprocal pairings; one molecule for both; also called DauA-T18; DauA-T25; source: bacterial two-hybrid fusion (pUT18 or pKNT25), in E. coli BTH101 (cyaA-); not shown: T18 or T25 domain of Bordetella pertussis adenylate cyclase CyaA, C-terminal, kept
T1 sequence (looked up): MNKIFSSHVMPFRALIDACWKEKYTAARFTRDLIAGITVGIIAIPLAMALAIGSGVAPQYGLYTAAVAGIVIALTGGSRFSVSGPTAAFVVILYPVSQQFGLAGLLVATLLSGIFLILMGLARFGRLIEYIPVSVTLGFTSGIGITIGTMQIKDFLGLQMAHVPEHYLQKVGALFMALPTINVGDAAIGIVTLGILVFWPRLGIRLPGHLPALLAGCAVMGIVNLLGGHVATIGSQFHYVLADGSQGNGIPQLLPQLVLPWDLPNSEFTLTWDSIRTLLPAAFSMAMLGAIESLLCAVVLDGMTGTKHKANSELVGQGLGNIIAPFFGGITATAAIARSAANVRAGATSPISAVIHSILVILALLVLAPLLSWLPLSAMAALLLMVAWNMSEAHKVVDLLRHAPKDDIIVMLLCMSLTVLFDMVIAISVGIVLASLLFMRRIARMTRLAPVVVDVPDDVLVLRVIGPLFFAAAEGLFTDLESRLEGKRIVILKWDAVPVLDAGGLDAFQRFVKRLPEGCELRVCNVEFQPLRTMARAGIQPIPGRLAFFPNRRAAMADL

T2: DctA fused to the T18 or T25 domain of adenylate cyclase (E. coli, UniProt P0A830 1-428)
T2 construct: Aerobic C4-dicarboxylate transport protein DctA, E. coli; also called DctA-T25; DctA-T18; source: bacterial two-hybrid fusion (pUT18 or pKNT25), in E. coli BTH101 (cyaA-); not shown: T18 or T25 domain of Bordetella pertussis adenylate cyclase CyaA, C-terminal, kept
T2 sequence (looked up): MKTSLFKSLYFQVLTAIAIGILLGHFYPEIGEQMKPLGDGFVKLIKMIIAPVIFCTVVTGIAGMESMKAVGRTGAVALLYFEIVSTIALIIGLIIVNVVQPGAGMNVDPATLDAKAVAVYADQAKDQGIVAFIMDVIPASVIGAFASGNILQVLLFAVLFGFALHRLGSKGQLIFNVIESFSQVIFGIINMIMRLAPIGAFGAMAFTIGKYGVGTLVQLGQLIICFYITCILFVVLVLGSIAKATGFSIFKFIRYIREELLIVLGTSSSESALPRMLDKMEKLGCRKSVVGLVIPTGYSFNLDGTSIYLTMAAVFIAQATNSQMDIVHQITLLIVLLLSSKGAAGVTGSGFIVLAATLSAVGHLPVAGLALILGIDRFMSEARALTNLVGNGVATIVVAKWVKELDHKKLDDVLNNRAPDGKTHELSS

B1: AmtB (ammonium transporter), two-hybrid fusion (natural protein, UniProt P69681 1-428, looked up)
chain: MKIATIKTGLASLAMLPGLVMAAPAVADKADNAFMMICTALVLFMTIPGIALFYGGLIRGKNVLSMLTQVTVTFALVCILWVVYGYSLAFGEGNNFFGNINWLMLKNIELTAVMGSIYQYIHVAFQGSFACITVGLIVGALAERIRFSAVLIFVVVWLTLSYIPIAHMVWGGGLLASHGALDFAGGTVVHINAAIAGLVGAYLIGKRVGFGKEAFKPHNLPMVFTGTAILYIGWFGFNAGSAGTANEIAALAFVNTVVATAAAILGWIFGEWALRGKPSLLGACSGAIAGLVGVTPACGYIGVGGALIIGVVAGLAGLWGVTMLKRLLRVDDPCDVFGVHGVCGIVGCIMTGIFAASSLGGVGFAEGVTMGHQLLVQLESIAITIVWSGVVAFIGYKLADLTVGLRVPEEQEREGLDVNSHGENAYNA
notes: Ammonium transporter AmtB; source: bacterial two-hybrid fusion, in E. coli BTH101 (cyaA-)
B2: DcuS fused to the T18 or T25 domain of adenylate cyclase (natural protein, E. coli, UniProt P0AEC8 1-543, looked up)
chain: MRHSLPYRMLRKRPMKLSTTVILMVSAVLFSVLLVVHLIYFSQISDMTRDGLANKALAVARTLADSPEIRQGLQKKPQESGIQAIAEAVRKRNDLLFIVVTDMQSLRYSHPEAQRIGQPFKGDDILKALNGEENVAINRGFLAQALRVFTPIYDENHKQIGVVAIGLELSRVTQQINDSRWSIIWSVLFGMLVGLIGTCILVKVLKKILFGLEPYEISTLFEQRQAMLQSIKEGVVAVDDRGEVTLINDAAQELLNYRKSQDDEKLSTLSHSWSQVVDVSEVLRDGTPRRDEEITIKDRLLLINTVPVRSNGVIIGAISTFRDKTEVRKLMQRLDGLVNYADALRERSHEFMNKLHVILGLLHLKSYKQLEDYILKTANNYQEEIGSLLGKIKSPVIAGFLISKINRATDLGHTLILNSESQLPDSGSEDQVATLITTLGNLIENALEALGPEPGGEISVTLHYRHGWLHCEVNDDGPGIAPDKIDHIFDKGVSTKGSERGVGLALVKQQVENLGGSIAVESEPGIFTQFFVQIPWDGERSNR
notes: Membrane embedded sensor histidine kinase DcuS, E. coli; also called DcuS-T18; DcuS-T25; source: bacterial two-hybrid fusion (pUT18 or pKNT25), in E. coli BTH101 (cyaA-); not shown: T18 or T25 domain of Bordetella pertussis adenylate cyclase CyaA, C-terminal, kept

Columns and labels:
[1] = biological target: T1, DauA fused to the T18 or T25 domain of …; test: two-hybrid; bacterial two-hybrid (BTH): T18 and T25 fusions co-transformed in E. coli BTH101 (cyaA-), grown overnight in LB at 30 °C; beta-galactosidase activity; background below 150 Miller units; the reporter strain expresses chromosomal DctA and DcuS; settings: partners not purified
[2] = biological target: T2, DctA fused to the T18 or T25 domain of …; test: as above; settings: partners not purified

Binder	beta-galactosidase activity [1] [Miller units]	beta-galactosidase activity [2] [Miller units]
B1	< 150	
B2		252
